# In FireProtDB (doi:10.1021/bi00146a008):
# B1: Lysozyme C wild type, P61626 (protein)
# chain: MKALIVLGLVLLSVTVQGKVFERCELARTLKRLGMDGYRGISLANWMCLAKWESGYNTRATNYNAGDRSTDYGIFQINSRYWCNDGKTPGAVNACHLSCSALLQDNIADAVACAKRVVRDPQGIRAWVAWRNRCQNRDVRQYVQGCGV
# Conditions: Homo sapiens, pH 2.8, Thermal, DSC, glycine-HCl 50 mM, reversible: yes, whole UniProt chain shown
protein,measurement,setting,value
B1,heat capacity change of unfolding,68.8 °C,1.58 kcal/mol/K
same,unfolding enthalpy (calorimetric),68.8 °C,120 kcal/mol
same,Tm,,68.8 °C
same,heat capacity change of unfolding,,1.58 kcal/mol/K
